Measurements from patent US20220202901A1, “PEPTIDES IN COMBINATION WITH IMMUNE CHECKPOINT INHIBITORS FOR USE IN TREATMENT OF CANCER” (WNTRESEARCH AB, priority 2019, published 2022).

What was measured:
SKBR3 cells = experiment: Functional immune response assay: PBMC cytotoxicity against SKBR3 cells; assay type: cell-based; settings: SKBR3, relative to vehicle control
Protocol: (§1) Purpose: Examining the cytotoxic effect of Foxy-5 and an anti-PD-L1 antibody alone or in combination in a functional immune response assay with different breast cancer cell lines.
(§2) Peripheral blood mononuclear cells (PBMCs) were isolated from whole blood using Ficoll Paque based density centrifugation.
(§3) SKBR3 (low in PD L1, denoted PD L1+) or HCC1954 (high in PD L1, denoted PD L1+++) cells were stained with 0.1 mM CFSE.
(§4) Effector cells (EC), i.e. PMMCs and target cells (TC), i.e. SKBR3 or HCC1954 cells, respectively, were brought to a concentration of 2×10^5 cells/ml.
(§5) Cells were treated with and without Foxy5 (100 μM), the cells were also treated with and without pembrolizumab […].
(§6) Cells were plated at EC:TC ratios of 1:1 (first bar), 5:1 (second bar) and 10:1 (third bar) along with basal cell death controls and total cell death controls. Once plated, cells were spun down and incubated for 12 hours. After 12 hours cells were re suspended with 5 μg/ml 7AAD. Cells were then analysed on the Guava flow cytometer.
(§7) Based on staining patterns live/dead cell and immune/cancer cell differentiation can be determined and the direct cytotoxicity in terms of the cell death percentage was calculated.
Direct cytotoxicity elicited by PBMCs against the SKBR3 cell line in the presence of FOXY-5 and/or pembrolizumab relative to vehicle control. […]

HCC1954 cells = experiment: Functional immune response assay: PBMC cytotoxicity against HCC1954 cells; assay type: cell-based
Protocol: as §1, §2, §3, §4, §5, §6, §7
Direct cytotoxicity elicited by PBMCs against the HCC1954 cell line in the presence of FOXY-5 and/or pembrolizumab relative to vehicle control. […]

Substance: Pembrolizumab
- trastuzumab mediated ADCC (SKBR3 cells; EC:TC 10:1 and 5:1 ratios): decreased
- direct PBMC cytotoxicity (SKBR3 cells; EC:TC 10:1 ratio): increased
- direct PBMC cytotoxicity (HCC1954 cells; HCC1954 (PD L1 high), relative to vehicle control, EC:TC 5:1 and 10:1 ratios): increased
- direct cytotoxicity (HCC1954 cells; HCC1954, pembrolizumab added to Foxy-5 vs. single agent, ratios 1:1 and 10:1): increased
